Source: publication PMC7954794, “Protein context shapes the specificity of SH3 domain-mediated interactions in vivo” (Nature Communications, 2021)

Assays:
Assay type in all cases: cell-based, Saccharomyces cerevisiae
Hua2 = assay: Deep mutational scanning of Abp1 SH3, Abp1-Hua2 DHFR-PCA (DMS score); details: for hua2sc (DMS score): Abp1-Hua2, frequencies scaled to the synonymous mutation distribution (DMS score); for HUA2_MTX2: Abp1-Hua2 DHFR-PCA, frequencies normalized to the reference condition, amino acid level; for HUA2_MTX2 = frequencies normalized to the reference condition: Hua2, MTX2, amino acid format; for hua2sc = Frequencies scaled to the synonymous mutation distribution (DMS score): Hua2
Summary of the method: (§1)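 Saturation mutagenesis (NNN per codon) of Abp1 SH3, reintegrated at the genomic locus in yeast and mated with Hua2- or Lsb3-DHFR F[3] prey strains. Diploids underwent two rounds of liquid DHFR-PCA selection (72 h each, 30 °C), in biological duplicate. Mutant abundance was tracked by Illumina sequencing against the pre-selection reference.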

Lsb3 = assay: Deep mutational scanning of Abp1 SH3, Abp1-Lsb3 DHFR-PCA (DMS score); details: for lsb3sc (DMS score): Abp1-Lsb3, frequencies scaled to the synonymous mutation distribution (DMS score); for LSB3_MTX2: Abp1-Lsb3 DHFR-PCA, frequencies normalized to the reference condition, amino acid level; for LSB3_MTX2 = frequencies normalized to the reference condition: Lsb3, MTX2, amino acid format; for lsb3sc = Frequencies scaled to the synonymous mutation distribution (DMS score): Lsb3
Summary of the method: as §1

Hua2 and Lsb3 [1] = assay: Deep mutational scanning of Abp1 SH3, quadrant classification from Hua2 and Lsb3 DMS scores; details: class from hua2sc and lsb3sc
Hua2 and Lsb3 [2] = assay: Deep mutational scanning of Abp1 SH3, quadrant by Hua2 and Lsb3 DMS scores

| Molecule | hua2sc (DMS score) (Hua2) | HUA2_MTX2 (Hua2) | lsb3sc (DMS score) (Lsb3) | LSB3_MTX2 (Lsb3) | quadrant (Hua2 and Lsb3 [1]) | HUA2_MTX2 = frequencies normalized to the reference condition (Hua2) | hua2sc = Frequencies scaled to the synonymous mutation distribution (DMS score) (Hua2) | LSB3_MTX2 = frequencies normalized to the reference condition (Lsb3) | lsb3sc = Frequencies scaled to the synonymous mutation distribution (DMS score) (Lsb3) | quadrant (Hua2 and Lsb3 [2]) |
| --- | --- | --- | --- | --- | --- | --- | --- | --- | --- | --- |
| ABP1 L37L (protein, UniProt P15891 2-592, looked up, synonymous codon change L37L in SH3) Actin-binding protein: ALEPIDYTTHSREIDAEYLKIVRGSDPDTTWLIISPNAKKEYEPESTGSSFHDFLQLFDETKVQYGLARVSPPGSDVEKIIIIGWCPDSAPLKTRASFAANFAAVANNLFKGYHVQVTARDEDDLDENELLMKISNAAGARYSIQTSSKQQGKASTPPVKKSFTPSKSPAPVSKKEPVKTPSPAPAAKISSRVNDNNDDDDWNEPELKERDFDQAPLKPNQSSYKPIGKIDLQKVIAEEKAKEDPRLVQKPTAAGSKIDPSSDIANLKNESKLKRDSEFNSFLGTTKPPSMTESSLKNDDDKVIKGFRNEKSPAQLWAERKAKQNSGNAETKAEAPKPEVPEDEPEGEPDVKDLKSKFEGLAASEKEEEEMENKFAPPPKKSEPTIISPKPFSKPQEPVKAEEAEQPKTDYKKIGNPLPGMHIEADNEEEPEENDDDWDDDEDEAAQPPLPSRNVASGAPVQKEEPEQEEIAPSLPSRNSIPAPKQEEAPEQAPEEEIEEEAEEAAPQLPSRSSAAPPPPPRRATPEKKPKENPWATAEYDYDAAEDNELTFVENDKIINIEFVDDDWWLGELEKDGSKGLFPSNYVSLGN | -0.0161 | 1.597 | 0.2222 | 1.722 | Neutral | – | – | – | – | – |
| ABP1 S45S (protein, UniProt P15891 2-592, looked up, synonymous S45S codon change in SH3 domain) Actin-binding protein: ALEPIDYTTHSREIDAEYLKIVRGSDPDTTWLIISPNAKKEYEPESTGSSFHDFLQLFDETKVQYGLARVSPPGSDVEKIIIIGWCPDSAPLKTRASFAANFAAVANNLFKGYHVQVTARDEDDLDENELLMKISNAAGARYSIQTSSKQQGKASTPPVKKSFTPSKSPAPVSKKEPVKTPSPAPAAKISSRVNDNNDDDDWNEPELKERDFDQAPLKPNQSSYKPIGKIDLQKVIAEEKAKEDPRLVQKPTAAGSKIDPSSDIANLKNESKLKRDSEFNSFLGTTKPPSMTESSLKNDDDKVIKGFRNEKSPAQLWAERKAKQNSGNAETKAEAPKPEVPEDEPEGEPDVKDLKSKFEGLAASEKEEEEMENKFAPPPKKSEPTIISPKPFSKPQEPVKAEEAEQPKTDYKKIGNPLPGMHIEADNEEEPEENDDDWDDDEDEAAQPPLPSRNVASGAPVQKEEPEQEEIAPSLPSRNSIPAPKQEEAPEQAPEEEIEEEAEEAAPQLPSRSSAAPPPPPRRATPEKKPKENPWATAEYDYDAAEDNELTFVENDKIINIEFVDDDWWLGELEKDGSKGLFPSNYVSLGN | – | – | – | – | – | 1.852 | 0.2394 | 1.916 | 0.4157 | Neutral |
| ABP1 K42K (protein, UniProt P15891 2-592, looked up, synonymous codon K42K) Actin-binding protein: ALEPIDYTTHSREIDAEYLKIVRGSDPDTTWLIISPNAKKEYEPESTGSSFHDFLQLFDETKVQYGLARVSPPGSDVEKIIIIGWCPDSAPLKTRASFAANFAAVANNLFKGYHVQVTARDEDDLDENELLMKISNAAGARYSIQTSSKQQGKASTPPVKKSFTPSKSPAPVSKKEPVKTPSPAPAAKISSRVNDNNDDDDWNEPELKERDFDQAPLKPNQSSYKPIGKIDLQKVIAEEKAKEDPRLVQKPTAAGSKIDPSSDIANLKNESKLKRDSEFNSFLGTTKPPSMTESSLKNDDDKVIKGFRNEKSPAQLWAERKAKQNSGNAETKAEAPKPEVPEDEPEGEPDVKDLKSKFEGLAASEKEEEEMENKFAPPPKKSEPTIISPKPFSKPQEPVKAEEAEQPKTDYKKIGNPLPGMHIEADNEEEPEENDDDWDDDEDEAAQPPLPSRNVASGAPVQKEEPEQEEIAPSLPSRNSIPAPKQEEAPEQAPEEEIEEEAEEAAPQLPSRSSAAPPPPPRRATPEKKPKENPWATAEYDYDAAEDNELTFVENDKIINIEFVDDDWWLGELEKDGSKGLFPSNYVSLGN | -0.1876 | 1.425 | 0.08611 | 1.586 | Neutral | – | – | – | – | – |
| ABP1 G44G (protein, UniProt P15891 2-592, looked up, synonymous codon change G44G) Actin-binding protein: ALEPIDYTTHSREIDAEYLKIVRGSDPDTTWLIISPNAKKEYEPESTGSSFHDFLQLFDETKVQYGLARVSPPGSDVEKIIIIGWCPDSAPLKTRASFAANFAAVANNLFKGYHVQVTARDEDDLDENELLMKISNAAGARYSIQTSSKQQGKASTPPVKKSFTPSKSPAPVSKKEPVKTPSPAPAAKISSRVNDNNDDDDWNEPELKERDFDQAPLKPNQSSYKPIGKIDLQKVIAEEKAKEDPRLVQKPTAAGSKIDPSSDIANLKNESKLKRDSEFNSFLGTTKPPSMTESSLKNDDDKVIKGFRNEKSPAQLWAERKAKQNSGNAETKAEAPKPEVPEDEPEGEPDVKDLKSKFEGLAASEKEEEEMENKFAPPPKKSEPTIISPKPFSKPQEPVKAEEAEQPKTDYKKIGNPLPGMHIEADNEEEPEENDDDWDDDEDEAAQPPLPSRNVASGAPVQKEEPEQEEIAPSLPSRNSIPAPKQEEAPEQAPEEEIEEEAEEAAPQLPSRSSAAPPPPPRRATPEKKPKENPWATAEYDYDAAEDNELTFVENDKIINIEFVDDDWWLGELEKDGSKGLFPSNYVSLGN | – | – | – | – | – | 1.505 | -0.1077 | 1.253 | -0.247 | Neutral |
